Reference: US20240035010, “COMPOSITIONS COMPRISING A VARIANT POLYPEPTIDE AND USES THEREOF” (Arbor Biotechnologies, Inc., published 2024)

Biological target: T1, variant nuclease SEQ ID NO: 53 (P14R, D32R, I61R, E311R, T338G, E736G)
T1 chain: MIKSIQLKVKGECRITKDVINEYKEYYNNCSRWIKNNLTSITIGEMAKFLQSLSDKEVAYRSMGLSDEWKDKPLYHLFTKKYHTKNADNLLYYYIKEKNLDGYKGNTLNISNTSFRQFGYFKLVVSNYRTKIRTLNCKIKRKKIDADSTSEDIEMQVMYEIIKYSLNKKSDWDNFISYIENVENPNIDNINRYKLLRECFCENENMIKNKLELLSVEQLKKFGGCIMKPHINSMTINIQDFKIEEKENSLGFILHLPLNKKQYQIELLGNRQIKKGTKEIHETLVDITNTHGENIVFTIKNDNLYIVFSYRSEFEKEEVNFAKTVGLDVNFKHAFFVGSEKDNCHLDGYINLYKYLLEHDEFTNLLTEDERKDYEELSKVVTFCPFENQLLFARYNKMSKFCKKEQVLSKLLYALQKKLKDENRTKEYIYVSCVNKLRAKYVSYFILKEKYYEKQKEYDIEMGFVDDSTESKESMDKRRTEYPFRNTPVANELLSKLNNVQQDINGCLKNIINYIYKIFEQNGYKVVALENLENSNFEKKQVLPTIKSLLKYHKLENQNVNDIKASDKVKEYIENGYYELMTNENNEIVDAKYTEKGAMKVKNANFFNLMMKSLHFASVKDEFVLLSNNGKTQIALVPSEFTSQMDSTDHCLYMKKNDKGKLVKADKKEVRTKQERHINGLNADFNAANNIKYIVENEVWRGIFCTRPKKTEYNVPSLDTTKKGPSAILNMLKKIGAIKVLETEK
Test: cell_activity; nearly 0.6; HEK293T; PAM 5'-TTTG-3'
Details: tags: pcDNA3.1 expression
Method: Approximately 16 hours prior to transfection, 25,000 HEK293T cells in DMEM/10% FBS+Pen/Strep (D10 media) were plated into each well of a 96-well plate. On the day of transfection, the cells were 70-90% confluent. For each well to be transfected, a mixture of Lipofectamine 2000™ and Opti-MEM™ was prepared and incubated at room temperature for 5 minutes (Solution 1). After incubation, the Lipofectamine 2000™:Opti-MEM™ mixture was added to a separate mixture containing nuclease plasmid, RNA guide plasmid, and Opti-MEM™ (Solution 2). In the case of negative controls, the RNA guide plasmid was not included in Solution 2. Solutions 1 and 2 were mixed by pipetting up and down, then incubated at room temperature for 25 minutes. Following incubation, the Solution 1 and 2 mixture was added dropwise to each well of a 96-well plate containing the cells. Approximately 72 hours post transfection, cells were trypsinized by adding TrypLE™ to the center of each well and incubating at 37° C. for approximately 5 minutes. D10 media was then added to each well and mixed to resuspend cells. The resuspended cells were centrifuged at 500 g for 10 minutes to obtain a pellet, and the supernatant was discarded. The cell pellet was then resuspended in QuickExtract™ buffer (Lucigen®), and cells were incubated at 65° C. for 15 minutes, 68° C. for 15 minutes, and 98° C. for 10 minutes. […]

B1: VEGFA_T1 crRNA ; VEGFA_T1 target (ssRNA ; dsDNA)
RNA: CCUGUUGUGAAUACUCUUUUAUAGGUAUCAAACAACUCCUGGUGAAAGGCAGCCCU
DNA 1: TCCTGGTGAAAGGCAGCCCT
DNA 2: AGGGCTGCCTTTCACCAGGA
B1 showed an activity of ~0.6 indel ratio.
